Reference: US20120282269A1 (Boehringer Ingelheim, published 2012)
“And” between values parts separate entries of the source, which are not always exact repeats. Equal values may be shown once.

T1: recombinant human IL-23 (human, UniProt P29460 23-328)
T1 sequence 1: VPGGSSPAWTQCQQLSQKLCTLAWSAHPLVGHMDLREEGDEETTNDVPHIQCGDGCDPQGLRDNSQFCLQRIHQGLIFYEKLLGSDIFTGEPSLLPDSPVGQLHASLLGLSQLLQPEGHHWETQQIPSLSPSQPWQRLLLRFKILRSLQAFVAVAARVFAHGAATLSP
T1 sequence 2: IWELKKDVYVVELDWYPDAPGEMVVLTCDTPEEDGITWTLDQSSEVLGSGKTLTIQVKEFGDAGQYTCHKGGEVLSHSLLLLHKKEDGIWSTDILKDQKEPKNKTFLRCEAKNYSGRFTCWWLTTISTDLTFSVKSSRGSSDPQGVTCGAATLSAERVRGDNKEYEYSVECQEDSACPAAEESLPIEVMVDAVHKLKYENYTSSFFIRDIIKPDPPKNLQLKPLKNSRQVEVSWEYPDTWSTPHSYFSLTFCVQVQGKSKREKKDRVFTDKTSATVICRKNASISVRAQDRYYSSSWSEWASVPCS

T2: natural human IL-23 from activated THP-1 cells (human, UniProt P29460 23-328)
T2 sequence 1: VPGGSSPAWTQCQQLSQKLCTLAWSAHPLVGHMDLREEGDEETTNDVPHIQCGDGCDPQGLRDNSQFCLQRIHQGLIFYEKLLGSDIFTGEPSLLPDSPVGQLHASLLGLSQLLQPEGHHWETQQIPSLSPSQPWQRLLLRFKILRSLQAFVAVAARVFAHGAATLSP
T2 sequence 2: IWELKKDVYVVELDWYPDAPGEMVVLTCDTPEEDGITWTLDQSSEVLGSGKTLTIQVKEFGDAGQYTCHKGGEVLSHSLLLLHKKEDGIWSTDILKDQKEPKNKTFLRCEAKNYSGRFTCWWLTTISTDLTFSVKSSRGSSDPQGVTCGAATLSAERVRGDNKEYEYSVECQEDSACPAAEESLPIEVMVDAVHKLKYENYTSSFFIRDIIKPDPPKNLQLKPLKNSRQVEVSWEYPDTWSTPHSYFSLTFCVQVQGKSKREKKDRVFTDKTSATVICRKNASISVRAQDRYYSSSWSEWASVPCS


Experiments:
recombinant human IL-23 = target: T1, recombinant human IL-23; assay: cell-based or functional assay
[1] = target: T2, natural human IL-23 from activated …; assay: cell-based or functional assay

| Binder | IC50, inhibition of IL-17 production from IL-23 stimulated mouse splenocytes (recombinant human IL-23) | IC50, inhibition of IL-17 production from IL-23 stimulated mouse splenocytes [1] |
| --- | --- | --- |
| 18C4 (antibody, V domains shown) VH: EVQLQQSGPEVVKPGASVKMSCKASGYTFTSSVIHWVKQKAGQGLEWIGYINPYNDGTKYNEKFKGKATLTSDRSSSTAYMELSSLTSEDSAVYYCTRRLDEAYWGQGTLVTVSA VL: DIVMTQSPATLSVTPGDRVSLSCRASQSISEYLHWYQQKSHESPRLLIKYASQSISGIPSRFSGSGSGSDFTLSINSVEPEDVGVYYCQNGHSFPFTFGSGTKLEIK | 0.471 nM |  |
| 20E8 (antibody, V domains shown) VH: EVQLQQSGPELVKPGASVKMSCKASGYTFTSSVMHWVKQKAGQGLEWIGYINPYNDGTQYNEKFKGKATLTSDKFSSTAYMELSSLTSEDSAVYYCTRRLDEAYWGQGTLVTVSA VL: DIVMTQSPATLSVTPGDRVSLSCRASQSISEYLHWYQQKSHESPRLLIKYASQSISGIPSRFSGSGSGSDFTLSINSVEPEDVGVYYCQNGHSFPFTFGSGTKLEIK |  | 0.438 nM and 0.561 nM |
| 22E2 (antibody, V domains shown) VH: EVQLQQSGPELVKPGASVKMSCKASGYTFTSSIIHWVKQRPGQGLEWIGYINPYDDVTKYNEKFKGKATLTSDKSSSTAYMELSSLTSEDSAVYYCARRWDESYWGQGTLVTVSA VL: DIVMTQSPATLSVTPGDRVSLSCRASQSISVYLHWYQQKSPESPRLLIKYASQSISGIPSRFSGSGSGSDFTLSINSVEPEDVGVYYCQNGHSFPFTFGSGTKLEIK | 0.061 nM and 0.13 nM |  |
| 24A5 (antibody, V domains shown) VH: EVQLQQSGPELVKPGASVKMSCKASGYTFTTSIMHWVKQKPGQGLEWIGYINPYDDVTKYNEKFKGKATLTSDKSSSTAYMELSSLTSEDSAVYYCVRRWDEAYWGQGTLVTVSA VL: DIVMTQSPATLSVTPGNRVSLSCRASQSISDYLHWYQQKSHESPRLLIKYASQSISGIPSRFSGSGSGSNFTLSINSVEPEDVGVYYCQNGHSFPFTFGSGTKLEIK | 0.022 nM and 0.037 nM | 0.085 nM and 0.031 nM |
| 15C11 (antibody, V domains shown) VH: EVQLQQSGPVLVKPGASVKMSCKASGYTFTDYYMNWVKQSHGKSLEWIGVIIPYNGGTSYNQKFKGKATLTVDKSSSTAYMELNSLTSEDSAVYYCARDGHRWYFDVWGTGTTVTVSS VL: DVVMTQTPLSLPVSLGDQASISCRSSQSLVHSNGNTYLHWYLQKPGQSPKLLIYKVSNRFSGVPDRFSGSGSGTDFTLKINRVEAEDLGVYFCSQSTHVPYTFGGGTQLEIK | 0.126 nM | 0.232 nM |
| 43F5 (antibody, V domains shown) VH: EVQLQQSGPELVKPGASVKISCRASGYSFTGYYMNWVKQSPEKSLEWIGEIIPTTGGTSYNQKFKAKATLTVDKSSSTAYMQLKSLTSEDSAVYYCARESGGFYWYFDVWGTGTTVTVSS VL: DVVMTQSPLSLPVSLGDQASISCRSSQSLVHSNGNTYLHWYLLKPGQSPKLLIYKVSNRFSGVPDRFSGSGSGTDFTLKISRVEAEDLGVYFCSQSTHVPYTFGGGTKLEIK |  | 8 nM |
| 27G8 (antibody, V domains shown) VH: QVQLQQSDAELVKPGASVKISCKVSGYTFTDHTIHWMKQRPEQGLEWIGYIYPRDGYPKFNEKFKGKATLTADKSSSTAYMQLNSLTSEDSAVYFCARRPPYYAMDYWGQGTSVAVSS VL: DIVLTQSPASLAVSLGQRATISCRASKSVSTSGYSYIHWYQQKPGQPPKFLIYLASNLDSGVPARFSGSGSGTDFTLNIHPVEEEDAATYYCQHSRELPYTFGGGTKLEIK | 0.235 nM | 5 nM |
| 31H9 (antibody, V domains shown) VH: EVQLQQSGPELVKPGASVKMSCKASGYTFTRYLMHWVKQKPGQGLEWIGYINPYNDGTNYNEKFKGKATLTSDKSSSTAYMELSSLTSEDSAVYYCSLNWDYAYWGQGTLVTVSA VL: DIVMTQSPATLSVTPGDRVSLSCRASQSISDYLHWYQQKSHESPRLLIKYASQSISGIPSRFSGSGSGSDFTLSINSVEPEDVGVYYCQNGHSFPYTFGGGTKLEIK | 0.96 nM | 2 nM |
| 2D1 (antibody, V domains shown) VH: QVQLKESGPGLVAPSQSLSITCTVSGFSLTTYAISWVRQSPGKGLEWLGVIWTGGGTKYNSALKSRLSISKDNSKSQVFLKMNSLQTDDTARYYCARKDYNYGGAMDYWGQGTSVTVSS VL: DIVLTQSPGSLAVSLGQRATISCRTSESVYSYGQNFIHWYQQKPGQPPKLLIYRASNLESGIPARFSGSGSRTDFTLTMNPVEADDVATYYCQQTNEDPYTFGGGTKLEIR |  | 2.34 nM and 1.91 nM and 1.6 nM |
| 9D12 (antibody, V domains shown) VH: QVQLKESGPVLVAPSQSLSITCTVSGFSLNNFAISWVRQPPGKGLEWLGAIWTGGGTNYNSALKSRLSISKDNSKSQVFLKMNSLQTDDTARYYCVRKDYSYGGAMDYWGQGTSVTVSS VL: DIALTQSPASLAVSLGQRATISCRASETINFYGTSFMHWYQQKPGQSPKLLIYRASNLESGIPARFSGSGSRTDFTLTINPVEADDVATYYCQQTNEDPYTFGGGTKLEIK | 0.059 nM | 0.281 nM and 0.138 nM |
| Mouse antibody 6B8 (antibody, V domains shown) VH: QVQLQQSDAELVKPGTSVKTSCKISGNTFTDQTIHWMKQRPEQGLEWIGYIYPRDDSPKYNENFKGKATLTADKSSSTAYMQLNSLTSEDSAVYFCAIPDRSGYAWFIYWGQGTLVTVSS VL: DIVMTQSHKFLSTSVGDRVTITCKASRDVAIAVAWYQQKPGQSPKLLLFWASTRHTGVPDRFTGSGSRTDFTLTISNVQSEDLADYFCHQYSSYPFTFGSGTKLEIK | 0.013 nM |  |
| 73H10 (antibody, V domains shown) VH: EVQLQQSGPELVKPGASVKMSCKASGYTFTRYVMHWVKQKPGQGLEWIGYINPYNDVTKYNEKFKGKATLTSDRSSSTAYMKLSSLTSEDSAVYYCARNWDVPYWGQGTLITVSA VL: DIQMTQSPVFLSASVGETVTITCRASENIDSYLAWYQQKQGKSPQLLVFAARNLADGVPSRFSGSGSGTQYSLKINRMQSEDVARYYCQHYYSTPFTFGSGTKLEIE | 1.41 nM |  |
| 74H3 (antibody, V domains shown) VH: EVQLQQSGPELVKPGASVKMSCKASGYTFTRYLMHWVKQKPGQGLEWIGYINPYNDGTKYNERFKGKATLTSDKSSSTAYMELSSLTSEDSAVYYCARNWDVPYWGQGTLVTVSA VL: DIQMTQSPASLSASVGETVIFTCRASENIDSYLAWYQQKQGKSPQLLVYAATNLADGVPSRFSGSGSGTQYSLKINSLQSEDVARYYCLHYYSTPFTFGSGTELEIK | 1.35 nM |  |
| 26F7 (antibody, V domains shown) VH: EVQLQQSGPELVKPGASVKISCKASGYTFTDYYMNWVRQSHGESLEWIGDFNHNNDVITYNPKFKGKVTLTVEKSSTTAYMELRSLSSEDSAVYYCARGLRGYYAMDYWGQGTSVTVSS VL: DIVLTQSPASLAVSLGQRATISCRASKSVRFSDYFYMHWYQQKPGQPPKLLIYLASNLESGVPARFSGSGSGTDFTLNIHPVEEEDAATYYCQNSRELPYTFGGGTKLEIK | 0.027 nM |  |
| 18E5 (antibody, V domains shown) VH: EVQLQQSGPELVKPGAAVKMSCKASGYTFTRYLIHWVKQKPGQGLEWIGYINPYNDGTKYNEKFKGKATLTSDKSSSTAYMELSSLTSEDSAVYYCTSNWDLDYWGQGTTLTVSS VL: DIVMTQSPATLSVTPGDRVSLSCRASQSISDYLYWYQQKSHESPRLLIKFASQSISGIPSRFTGSGSGSDFTLSIDSVEPDDVGVFFCQNGHSFPFTFGGGTKLEIK |  | 0.009 nM and 0.013 nM |
| 18D3 (antibody, V domains shown) VH: EVQLQQSGPELVKPGASVKMSCKASGYTFTRYLIHWVKQKPGQGLEWIGYINPYNDGTKYNEKFKGKATLTSDKSSSTAYMELSSLTSEDSAVYYCTSNWDLDYWGQGTTLTVSS VL: DIVMTQSPATLSVTPGDRVSLSCRASQSISDYLYWYQQKSHESPRLLIKFASQSISGIPSRFTGSGSGSDFTLSIDSVEPDDVGVFFCQNGHSFPFTFGGGTKLEIK | 0.234 nM |  |
| 34G3 (antibody, V domains shown) VH: EFQLQQSGPELVKPGASVKISCKASGYSFTDYNMNWVKQSKGKSLEWIGVIIPNYGFTSYNQNFKGKATLTVDQSSSTAHMQLNSVTSEDSAVYYCVRDGGILLWYLDVWGTGTTVTVSS VL: DVVMTQTPLSLPVSLGDQASISCRSSQSLVHSNGNTYLHWYLQKPGQSPKLLIYKVSNRFSGVPDRFSGSGSGTDFTLKISRVEAEDLGVYFCSQSTHVPYTFGGGTKLEIN | 0.336 nM | 0.027 nM and 0.025 nM |
| Chimeric 22E2 (antibody, V domains shown) VH: EVQLQQSGPELVKPGASVKMSCKASGYTFTSSIIHWVKQRPGQGLEWIGYINPYDDVTKYNEKFKGKATLTSDKSSSTAYMELSSLTSEDSAVYYCARRWDESYWGQGTLVTVSA VL: DIVMTQSPATLSVTPGDRVSLSCRASQSISVYLHWYQQKSPESPRLLIKYASQSISGIPSRFSGSGSGSDFTLSINSVEPEDVGVYYCQNGHSFPFTFGSGTKLEIK | 0.1 nM |  |
